Experimental findings from patent CN114907476A are described below.

For assay [1], the target named is Jurkat-hTIGIT-NFAT-CD226细胞上过表达的人TIGIT (human). Nature of the assay: cell-based or functional assay.
Assay [2] deals with 表达于CHOK1细胞表面的人TIGIT (CHOK1/人TIGIT细胞, 吉满生物 GM-C01116) (human) (UniProt Q495A1). The assay can be described thus: flow cytometry on CHOK1/hTIGIT cells. Background: Flow cytometry measures light scatter and fluorescence of single cells or particles in a stream.
Assay [3] shares this target. The assay can be described thus: flow cytometry competition, inhibition of Biotinylated-CD155 (0.6μg/ml) binding to CHOK1/hTIGIT cells.
The target is the same in assay [4]. Nature of the assay: flow cytometry competition, inhibition of Biotinylated-CD155 (0.6μg/ml) binding to CHOK1/human TIGIT cells.

Sequence of UniProt Q495A1 (Q495A1 22-244, one chain of several): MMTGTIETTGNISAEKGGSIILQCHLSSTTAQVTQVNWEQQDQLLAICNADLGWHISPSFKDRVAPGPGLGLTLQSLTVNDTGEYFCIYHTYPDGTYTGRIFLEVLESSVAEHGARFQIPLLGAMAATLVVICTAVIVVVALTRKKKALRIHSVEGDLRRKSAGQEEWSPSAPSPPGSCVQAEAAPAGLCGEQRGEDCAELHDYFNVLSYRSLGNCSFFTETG

IgG对照 (antibody): in assay [1], the Max RLU was found to be 7110 RLU and the 最大RLU was 6320 RLU. Besides, the 最大MFI in assay [2] worked out at 229 MFI. This substance showed a 最大抑制 in assay [3] of 6.36%. In assay [4], this substance yielded a 最大抑制 of 3.03%.
